Results reported in US5637682, “High-affinity oligonucleotide ligands to the tachykinin substance P” (NeXstar Pharmaceuticals, Inc.).
Like-named read-outs stand apart in the source and are kept apart here.

Tests used:
[1] = biological target: T1, Substance P (SP) (UniProt P20366); conditions: equilibrium dialysis rough estimate, 20 uM RNA, fraction bound 0.017
T1 sequence: RPKPQQFFGLM

[2] = biological target: T2, Substance P (SP) (UniProt P20366); assay: single-point equilibrium dialysis; conditions: protein: synthetic; tags: free synthetic peptide, C-terminal amide, Sigma (3H-SP from NEN as tracer)
T2 chain: RPKPQQFFGLM
Experimental: (§1) Binding reactions consisted of 20 nM ^3H-SP (P_o) and either 0.2 µM RNA (a) or 1.0 µM RNA (b). ND=not determined.
(§2) Equilibrium dialysis. Equilibrium dialysis experiments were performed with a Spectra/Por® (Spectrum; Houston, Tex.) equilibrium dialyzer, Spectra/Por® (Spectrum; Houston, Tex.) microcell dialysis chambers (200-μl chamber volumes), and 12000–14000 MWCO dialysis membranes (Spectrum; Houston, Tex.). These membranes allow passage of SP but not 107-nt RNAs. Sample volumes were 200 μl on each side of the membrane (i.e., 200 μl per chamber). All experiments were at room temperature in 1X SP binding buffer. RNAs (unlabeled) were denatured prior to re-equilibration in binding buffer as described above for Experiment B. For binding curves (FIG. 4), RNA concentrations between 50 nM and 20 μM were utilized. […] For binding competition experiments (FIGS. 6 and 7), equal concentrations of the competing peptide were applied to each side of the membrane at the start of dialysis. The dialysis cells were rotated at 10 rpm to shorten the time required to reach equilibrium. […] Following equilibration, samples were withdrawn from the dialysis chambers, added to scintillation fluid, and counted.

[3] = biological target: T2, Substance P (SP); assay: equilibrium dialysis, five-point curve; single-point screen gave 170 nM; 10 mM HEPES pH 7.0, 150 mM NaCl, 5 mM KCl, 5 mM CaCl2, room temp; conditions: protein: synthetic; tags: free synthetic peptide, C-terminal amide, Sigma (3H-SP from NEN as tracer)
Experimental: as §2

[4] = biological target: T3, Reverse-orientation substance P (rSP); assay: competition; poor competitor of 3H-SP up to 100 uM; 1.6 uM RNA, 1.6 uM SP; conditions: protein: synthetic; tags: synthetic peptide
T3 chain: CMLGFFQQPKPR
Experimental: as §2, with “These” for “Equilibrium dialysis. Equilibrium dialysis experiments were performed with a Spectra/Por® (Spectrum; Houston, Tex.) equilibrium dialyzer, Spectra/Por® (Spectrum; Houston, Tex.) microcell dialysis chambers (200-μl chamber volumes), and 12000–14000 MWCO dialysis membranes (Spectrum; Houston, Tex.). These”

[5] = biological target: T4, Substance P fragment 2-11; assay: competition; unable to compete at 32 uM (20-fold excess over SP); conditions: protein: synthetic; tags: synthetic peptide, Sigma
T4 chain: PKPQQFFGLM
Experimental: as §2

[6] = biological target: T2, Substance P (SP); assay: single-point equilibrium dialysis; stated for all class 2; conditions: protein: synthetic; tags: free synthetic peptide, C-terminal amide, Sigma (3H-SP from NEN as tracer)
Experimental: as §1, §2

[7] = biological target: T2, Substance P (SP); assay: equilibrium dialysis, five-point curve; earlier estimate 14 uM; SP binding buffer, room temp; conditions: protein: synthetic; tags: free synthetic peptide, C-terminal amide, Sigma (3H-SP from NEN as tracer)
Experimental: as §2

[8] = biological target: T2, Substance P (SP); assay: single-point equilibrium dialysis; exception to the >2 uM statement, exact value only in figure; conditions: protein: synthetic; tags: free synthetic peptide, C-terminal amide, Sigma (3H-SP from NEN as tracer)
Experimental: as §1, §2

Question: Which Kd [1] does the source give for “GGGAGCUCAGAAUAAACGCUCAANNNNNNNNNNNNNNNNNNNNNNNNNNNNNNNNNNNNNNNNNNNNNNNNNNNNNNNNNNNNUUCGACAUGAGGCCCGGAUCCGGC [Unselected random 60N RNA pool]” here?
Answer: 1200 µM

B1: Ligand B23 (class 3) (ssRNA)
RNA: GGGAGCUCAGAAUAAACGCUCAAGCUCAAGGCAGAAACAGGACACACCAAGACGAGUUAACCAGCCCAGCUUGACCAUACAUUCGACAUGAGGCCCGGAUCCGGC
Question: B1 was tested. Which Kd [2] did it give?
Answer: > 2 µM

B2: Ligand B28 (ssRNA)
RNA: GGGAGCUCAGAAUAAACGCUCAACUUCCAAGGCAGUGGAAACCCUAAGGUCAAUAAUGACCAAUGACGCCGCUCCGGUUCAACCUUCGACAUGAGGCCCGGAUCCGGC
Question: B2 was tested. Which Kd [3] did it give?
Answer: 0.19 µM

Question: Does B2 bind [4]?
Answer: no binding

Question: Does B2 bind [5]?
Answer: no binding

B3: Experiment B class 2 ligand (SEQ 52) (ssRNA)
RNA: GGGAGCUCAGAAUAAACGCUCAAAAACAGGACACCAAUUUUAUUGGACGAGUUUACUAGGGCGGUAUUAUGGGCUCGCGAGGAUUCGACAUGAGGCCCGGAUCCGGC
Question: With B3 as the molecule, how does the Kd [6] read?
Answer: > 2 µM

B4: Experiment B class 2 ligand (SEQ 54) (ssRNA)
RNA: GGGAGCUCAGAAUAAACGCUCAAAAACAGGACACCAAGAUUAUUGGACGAGUUUACUAGGGCGAUUAAUGGGCUCGCGAUGAUUCGACAUGAGGCCCGGAUCCGGC
Question: Which Kd [6] does the source give for B4 here?
Answer: > 2 µM

B5: Ligand A13 (ssRNA)
RNA: GGGAGCUCAGAAUAAACGCUCAAGGGCAACGCGGGCACCCCGACAGGUGCAAAAACGCACCGACGCCCGGCCGAAGAAGGGGAUUCGACAUGAGGCCCGGAUCCGGC
Question: How did the Kd [7] turn out when B5 was run?
Answer: 5.8 µM

B6: Experiment B class 2 ligand (SEQ 51) (ssRNA)
RNA: GGGAGCUCAGAAUAAACGCUCAAGAACAGGACACCUGGUUCUCAGGACGAGUUUACUAGGGCGGCAAAAAGGGCUCUCGUGGGUUCGACAUGAGGCCCGGAUCCGGC
Question: With B6 as the molecule, how does the Kd [6] read?
Answer: > 2 µM

B7: Ligand B32 (class 3) (ssRNA)
RNA: GGGAGCUCAGAAUAAACGCUCAAAAAGGCACUGACCACCCUCAGGAAGAAUAACCGCGGUCACCCGCAUCCGAGUCUAUCAAUUUCGACAUGAGGCCCGGAUCCGGC
Question: For B7, which Kd [8] is on record?
Answer: < 2 µM

B8: Experiment B class 2 ligand (SEQ 53) (ssRNA)
RNA: GGGAGCUCAGAAUAAACGCUCAAAAACAGGACACCAUGAAAAUGGACGAGUUCACUAGAGCGUUGAGCUGUGCGCCCGUGGAUUCGACAUGAGGCCCGGAUCCGGC
Question: How did the Kd [6] turn out when B8 was run?
Answer: > 2 µM

B9: Experiment B class 2 ligand (SEQ 48) (ssRNA)
RNA: GGGAGCUCAGAAUAAACGCUCAAAAAACAGGACACCAUGAUAAAUGGACGAGUUCACUGGAGCGUCUAAAAGGGCACCCUUGGAUUCGACAUGAGGCCCGGAUCCGGC
Question: B9 was tested. Which Kd [6] did it give?
Answer: > 2 µM

B10: Ligand B22 (class 3) (ssRNA)
RNA: GGGAGCUCAGAAUAAACGCUCAAAAGGUAAGAAACAGGACACGCACUUAAACAGACGAGUUAACCAUACCUAGAUCGCGGAAUUCGACAUGAGGCCCGGAUCCGGC
Question: B10 was tested. Which Kd [2] did it give?
Answer: > 2 µM

B11: Experiment B class 2 ligand (SEQ 49) (ssRNA)
RNA: GGGAGCUCAGAAUAAACGCUCAAUAACAGGACACCAUGAUUAAUGGACGAGUUCACUAGGGCGGUUAAAAGAGCUCUCGAGGAUUCGACAUGAGGCCCGGAUCCGGC
Question: How did the Kd [6] turn out when B11 was run?
Answer: > 2 µM

B12: Experiment B class 2 ligand (SEQ 55) (ssRNA)
RNA: GGGAGCUCAGAAUAAACGCUCAAAACAGGACACCUUGAAUAAAGGACGAGUUUACUGUGCGUUUAGUAGAGAACCCGGGAUUCGACAUGAGGCCCGGAUCCGGC
Question: Which Kd [6] does the source give for B12 here?
Answer: > 2 µM

B13: Experiment B class 2 ligand (SEQ 50) (ssRNA)
RNA: GGGAGCUCAGAAUAAACGCUCAAGAACAGGACACCAAGAUAAUUGGACGAGUUUACUAGGGCGGCUAUGCUGGCUCUCGAGGAUUCGACAUGAGGCCCGGAUCCGGC
Question: With B13 as the molecule, how does the Kd [6] read?
Answer: > 2 µM
